{
  "source": "paper PMC10374146",
  "binders": {"B1": {"name": "BME_RS14525 (ftrA) (dsDNA)", "DNA 1": "CTTAATGAAAAATCTATTCAG", "DNA 2": "CTGAATAGATTTTTCATTAAG"}, "B2": {"name": "BME_RS10660 (zntA) (dsDNA)", "DNA 1": "TCAGGCAAGCTTCATGCCCATATCC", "DNA 2": "GGATATGGGCATGAAGCTTGCCTGA"}, "B3": {"name": "BME_RS13655 (2Fe-2S binding protein) (dsDNA)", "DNA 1": "CGGTTTATTTTGTTTTTTTAGTTTC", "DNA 2": "GAAACTAAAAAAACAAAATAAACCG"}, "B4": {"name": "BME_RS09560 (hypothetical protein) (dsDNA)", "DNA 1": "ATGTTATAGAGCGATTCTGGTT", "DNA 2": "AACCAGAATCGCTCTATAACAT"}, "B5": {"name": "BME_RS01725 (membrane protein) (dsDNA)", "DNA 1": "GCATATTTTAGAATTATTCTAAATT", "DNA 2": "AATTTAGAATAATTCTAAAATATGC"}},
  "target": "Irr (iron response regulator) (Brucella melitensis M5-90, UniProt Q842L5 1-145)",
  "experiment": "EMSA",
  "details": "protein: ivt; tags: Halo (pDAP-Halo-Kan vector); chain copies: 2; label: biotin; blunt",
  "data": [
    {"binder": "B1", "values": [
      {"measurement": "binding result", "result": "binds"}
    ]},
    {"binder": "B2", "values": [
      {"measurement": "binding result", "result": "binds"}
    ]},
    {"binder": "B3", "values": [
      {"measurement": "binding result", "result": "binds"}
    ]},
    {"binder": "B4", "values": [
      {"measurement": "binding result", "result": "binds"}
    ]},
    {"binder": "B5", "values": [
      {"measurement": "binding result", "result": "binds"}
    ]}
  ]
}
